Results published in the RNAGym collection of RNA variant scans (doi:10.1073/pnas.2313332121).

B1: TPR t1 (parent)
chain: GACCAAUCUGCCCUCAGAGCUCGAGAACAUCUUCGGAUGCAGAGGAGGCAGGCUUCGGUGGCGCGAUAGCGCCAACGUCCUCAACCUCCAAUGCAUCCCACCACAUGAUGAUGCCUGAAGAGCCUUGGUUUUUUG

Variants of: B1
Assay: polymerase ribozyme fitness, log enrichment relative to wild type (log ratio); higher = more active; in vitro selection for triplet polymerase activity
Method in brief: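 Mutant libraries of both subunits of a heterodimeric triplet polymerase ribozyme were PCR-built, transcribed, and selected once in triplicate, with frozen incubation at −7 °C and capture of gel-excised extended constructs on streptavidin beads before RT-PCR. Illumina sequencing of input and output libraries was filtered to genotypes with ≥10 input reads and ≥1 read per output. Fitness is the logarithm of genotype enrichment over wild-type enrichment, using inverse-variance-weighted replicate averages. The logarithm is base 2.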

Point of comparison: C40A C76U, “polymerase ribozyme fitness (log ratio)” value -1.15. Against it:
- A41C C70U — lower, -2.04
- A41C C70G — lower, -3.91
- A41G G57A U106C — lower, -1.93
- C40G G48U C82A — lower, -2.43
- A41U G113A C114U C115A G122U — lower, -5.49
- A41C G58A C72U — higher, -0.757
- C40A C82U — lower, -1.77
- A41G A83C C98U — lower, -1.73
- G39U U78C U96A — lower, -4.33
- C40U C114U — lower, -2.55
- C40U C80A A84U — lower, -4.52
- G39U C114U G120A G127C — lower, -2.98
- C40U G60C C82U A90G A95U C97A C123G — lower, -7.02
- C40G C56G C124G G127U — higher, -0.222
- A41U A90C C124G — higher, 0.559
- C40U A41C G71A — lower, -2.9
- A41U G48C C70U — lower, -3.25
- A41U G120U — within 0.2 log units, -1.11
- C40A G58C C72G U78G C79A — lower, -5.64
- C40G U55G U78G — lower, -2.04
- G39U G60A U78C G127U — lower, -2.06
- A41G G61A C101U U133G — within 0.2 log units, -1.01
- C40A A43C G120C U130A — lower, -2.63
- C40A A41U G57C C104U C114U — lower, -3.33
- A41U A43U C72G G77C G93A C124G U131A — higher, -0.181
- A41U A90G — higher, -0.36
- C40G A91C C98U — lower, -5.6
- A41C G69U C82U A105U C123A — within 0.2 log units, -1.3
- G39U G69U C73A C124U — higher, 0.671
- G39U A111C C124A — higher, 0.34
- C40A C56U U87A — lower, -1.61
- A41U C80A C104U — lower, -6.34
- G39U C53G U116C — lower, -2.62
- C40U A43U C49A U55C G61C A84C G110C U131C — lower, -6.76
- A41U C89U G113U G117U — lower, -5.95
- C40U G42A G63C U125G — lower, -2.99
- A41U C64U C94U U133G — lower, -1.82
- C40A C86U — lower, -1.9
- C40A A41U A43U G44C — lower, -3.15
- C40U C70A C85U G135U — lower, -4.91
- A41U C82U G113C — lower, -2.61
- C40G G77U C101G U112A — within 0.2 log units, -1.23
- A41C C62A C82U — lower, -2.04
- G39U G117U — lower, -3.23
- G39U G127C — within 0.2 log units, -1.28
- C40G C53U G127C — within 0.2 log units, -1.33
- G39U C70A — lower, -2.96
- C40A A43U — lower, -2.77
- C40U A50C C76G G77C C80U U131G — lower, -4.6
- A41U A100C U106A U132C — lower, -2.89
- A41C C62U G110A — lower, -3.63
- C40A G42U G45U C56G C73U — lower, -4.17
- A41U C86G A95U — lower, -3.96
- C40G C53U — higher, -0.175
- G39U U92C — lower, -1.97
- C40G G69A C79U — lower, -2.89
- A41C C76A C79A U112A U125C — lower, -2.16
- A41U G51A U87G U112A A119G — lower, -4.72
- A41C C82U — within 0.2 log units, -1.12
- C40A C70U C124U — higher, -0.171
- G39U C62U C115G — lower, -1.99
- C40A C80U C89U G117A A121G — higher, -0.909
- C40A U96G — lower, -1.47
- G39U G61A C85U — higher, -0.878
- A41C A90C C123G G128C — lower, -2.07
- C40U C98U — lower, -2.01
- G39U C40A A43G C56G C104U U130C — lower, -4.61
- C40U C62U — higher, -0.882
- A41U C49A G52C C72U — lower, -3.5
- C40U G51U G58A — lower, -4.36
- A41U C72G U125G U133G — lower, -2.77
- A41U G63A U78A A83U — lower, -4.53
- C40A U133G — lower, -1.45
- C40U C56A A74C U130C — the same, -1.15
- A41G A46U — lower, -3.31
- C40U G42A C114U — lower, -1.92
- A41U C104U C124U — higher, 0.576
- C40U C124G — higher, 1.52
- A41G A43G — lower, -1.45
- A41C C70A A118G — lower, -3.8
- C40U G60A G120U — higher, -0.0652
- C40G G61C A118U — lower, -1.55
- C40G G51A C56A C72A A121U — lower, -3.83
